Seven molecules from PMC10164552, “PBRM1 bromodomains associate with RNA to facilitate chromatin association” can be followed below.

The target in data set [1] is T1, PBRM1 BD4 (UniProt Q86U86 496-637). The data set is described as follows: NMR titration (1H-15N HSQC); Kd only in figure, stated similar to other dsRNAs; NMR: 0.1 mM 15N-BD, 50 mM K phosphate pH 7.0, 50 mM KCl, 2 mM DTT, 2 mM EDTA, 7% D2O, 25 C; EMSA: 50 mM K phosphate pH 7.0, 10 mM KCl, 2 mM DTT, 2 mM EDTA, 5% sucrose, on ice 1 h, gel at 4 C. To be noted: protein: recombinant, tags: His tag, TEV-cleaved. (In general: In EMSA bound probe runs differently from free probe, usually more slowly.)
T1 sequence (Q86U86 496-637): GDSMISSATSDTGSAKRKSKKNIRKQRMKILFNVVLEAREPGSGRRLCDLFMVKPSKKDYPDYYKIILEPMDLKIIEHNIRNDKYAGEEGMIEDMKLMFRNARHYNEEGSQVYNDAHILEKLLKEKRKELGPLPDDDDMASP

For data set [2], the target named is T1, PBRM1 BD4. Nature of the data set: NMR titration (1H-15N HSQC); NMR: 0.1 mM 15N-BD, 50 mM K phosphate pH 7.0, 50 mM KCl, 2 mM DTT, 2 mM EDTA, 7% D2O, 25 C; EMSA: 50 mM K phosphate pH 7.0, 10 mM KCl, 2 mM DTT, 2 mM EDTA, 5% sucrose, on ice 1 h, gel at 4 C. To be noted: protein: recombinant, tags: His tag, TEV-cleaved.
Data set [3] deals with T2, PBRM1 BD2 (UniProt Q86U86 178-291). The data set is described as above. As to conditions: protein: recombinant, tags: His tag, TEV-cleaved.
T2 sequence (Q86U86 178-291): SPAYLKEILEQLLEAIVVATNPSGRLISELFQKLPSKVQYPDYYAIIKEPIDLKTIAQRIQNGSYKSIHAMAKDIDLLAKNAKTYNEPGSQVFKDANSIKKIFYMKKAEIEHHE
Data set [4] concerns the target T2, PBRM1 BD2. Nature of the data set: NMR titration (1H-15N HSQC); Kd only in figure, stated similar to other dsRNAs; NMR: 0.1 mM 15N-BD, 50 mM K phosphate pH 7.0, 50 mM KCl, 2 mM DTT, 2 mM EDTA, 7% D2O, 25 C; EMSA: 50 mM K phosphate pH 7.0, 10 mM KCl, 2 mM DTT, 2 mM EDTA, 5% sucrose, on ice 1 h, gel at 4 C. As to conditions: protein: recombinant, tags: His tag, TEV-cleaved, hairpin.

Data set [5] has as its target PBRM1 BD2 SKY_AAA (UniProt Q86U86 178-291, S275A;K277A;Y281A). The data set is described as follows: NMR titration (1H-15N HSQC); NMR: 0.1 mM 15N-BD, 50 mM K phosphate pH 7.0, 50 mM KCl, 2 mM DTT, 2 mM EDTA, 7% D2O, 25 C; EMSA: 50 mM K phosphate pH 7.0, 10 mM KCl, 2 mM DTT, 2 mM EDTA, 5% sucrose, on ice 1 h, gel at 4 C. As to conditions: protein: recombinant; tags: His tag, TEV-cleaved; hairpin, UUCG loop.

Data set [6] has as its target PBRM1 BD4 KRK_AAA (UniProt Q86U86 496-637, K511A;R512A;K513A). The data set is described as above. As to conditions: protein: recombinant; tags: His tag, TEV-cleaved; hairpin, UUCG loop.

Chain of PBRM1 BD4 KRK_AAA (Q86U86 496-637 K511A/R512A/K513A): as the sequence (Q86U86 496-637) above, with K16A, R17A, K18A counted along it
Chain of PBRM1 BD2 SKY_AAA (Q86U86 178-291 S275A/K277A/Y281A): as the sequence (Q86U86 178-291) above, with S98A, K100A, Y104A counted along it

B1: dsRNAIV (no loop) (dsRNA)
RNA 1: GGCAUCGUGC
RNA 2: GCACGAUGCC
As to B1, in data set [1] (blunt), the binding result was “binds”.
On to CGTAGACAGCT (ssDNA) [ssDNA], for which the Kd in data set [2] was found to be 2970 ± 140 µM; in data set [3] it was 130 ± 30 µM.
Consider GGCAUCGUGCUUCGGCACGAUGCC (structured_RNA) [dsRNAII stem-loop], for which the binding result was “binds” in data set [1] (hairpin, UUCG loop) and “binds” in data set [4] (UUCG loop).

B2: dsDNA 11 bp (dsDNA)
DNA 1: CGTAGACAGCT
DNA 2: AGCTGTCTACG
On to B2, for which the Kd in data set [2] (blunt) was 500 ± 270 µM; in data set [3] (blunt), 910 ± 380 µM.
As to GCGUAGACAGCUGUUCGCAGCUGUCUACGC (structured_RNA) [dsRNAI stem-loop 30 nt], the dissociation constant (Kd) came to 200 ± 70 µM in data set [5]; 120 ± 20 µM in data set [2] (hairpin, UUCG loop); 25 ± 8 µM in data set [3] (hairpin, UUCG loop); 1020 ± 40 µM in data set [6].
In the case of UUUUUUUUUUUUU (ssRNA) [ssRNAI poly-U 13 nt], the Kd in data set [2] came out at 320 ± 140 µM; in data set [3], 350 ± 80 µM.
As for GGCAUCGUGCAUCAGAAUGGCACGAUGCC (structured_RNA) [dsRNAIII stem-loop], the binding result in data set [1] (hairpin) and in data set [4] was “binds” in each case.

What is called Kd is a measure of binding affinity in units of concentration.
